# Laboratory results taken from patent US5618675A, “Methods and compositions for detecting lipopolysaccharides using CAP18 fragments” (Panorama Research, Inc., dated 1997).
# B1: BPI55: holoprotein of bactericidal permeability increasing protein (BPI) (protein, UniProt P17213 32-487, looked up)
# Bactericidal …: VNPGVVVRISQKGLDYASQQGTAALQKELKRIKIPDYSDSFKIKHLGKGHYSFYSMDIREFQLPSSQISMVPNVGLKFSISNANIKISGKWKAQKRFLKMSGNFDLSIEGMSISADLKLGSNPTSGKPTITCSSCSSHINSVHVHISKSKVGWLIQLFHKKIESALRNKMNSQVCEKVTNSVSSELQPYFQTLPVMTKIDSVAGINYGLVAPPATTAETLDVQMKGEFYSENHHNPPPFAPPVMEFPAAHDRMVYLGLSDYFFNTAGLVYQEAGVLKMTLRDDMIPKESKFRLTTKFFGTFLPEVAKKFPNMKIQIHVSASTPPHLSVQPTGLTFYPAVDVQAFAVLPNSSLASLFLIGMHTTGSMEVSAESNRLVGELKLDRLLLELKHSNIGPFPVELLQDIMNYIVPILVLPRVNEKLQKGFPLPTPARVQLYNVVLQPHQNFLLFGADVVYK
# B2: CAP18: cationic protein obtained from rabbit granulocytes, calculated molecular weight 16.6 kD, SEQ ID NO:4 (protein)
# chain: METHKHGPSLAWWSLLLLLLGLLMPPAIAQDLTYREAVLRAVDAFNQQSSEANLYRLLSMDPQQLEDAKPYTPQPVSFTVKETECPRTTWKLPEQCDFKEDGLVKRCVGTVTRYQAWDSFDIRCNRAQESPEPTGLRKRLRKFRNKIKEKLKKIGQKIQGLLPKLAPRTDY
# Key:
# [1] = Anti-coagulant activity of human RNIP (preliminary studies); assay type: biochemical
# [2] = tested on: rough mutant strain of Proteus mirabilis; conditions: cited from earlier work
# [3] = tested on: wild-type smooth Proteus mirabilis; conditions: cited from earlier work
# encapsulated E. coli = conditions: cited from earlier work
# [4] = tested on: galactosamine-sensitized mice; assay type: in vivo; conditions: CAP18 40 μg IP alone, no galactosamine, no Re-LPS
# From the text: Galactosamine sensitizes mice to the lethal effects of LPS by a factor 1000 or more. CAP18 and LPS were mixed and injected IP into sensitized mice. CAP18 can neutralize the lethal effects of LPS in this model of endotoxemia (see Table 8).
# human mononuclear cells = test: LPS-induced tissue factor by human mononuclear cells; assay type: cell-based; conditions: for Δ Units (%): LPS alone 100
# Description: Human mononuclear cells were separated from citrated peripheral blood by centrifugation over Sodium-metrizoate-Ficoll (lymphocyte Separation Medium, Japan Antibody Institute, Gumma). The resulting mixed mononuclear cell suspension was washed 3 times with RPMI 1640 media. Cell suspension (1×10^6 /ml) was stimulated with LPS for 16 to 18 hr.
# Veronal buffered saline (VBS) was added to the cell pellet, lysed by 3 cycles of freeze/thaw and sonicated for 10 sec with a hand-held sonicator microbe (Handy Sonic, model UR-20P, Tomy Seiko LTD, Tokyo). Tissue factor activity was tested in modified unactivated partial thromboplastin time (7). One tenth ml of cell lysate (1×10^6 /ml) was preincubated with mouse plasma at 37° C. for 3 min. Then 0.1 ml of 25 mM-CaCl2 which contains phospholipid was added to the mixture and clotting time was measured using a fibrometer (Bio Quest Division, Becton Dickinson, Cokeysville, USA). A standard curve obtained from serial two-fold dilutions of rabbit brain thromboplastic (Simplastin, Ono Pharmaceutical Co.) was used to transpose tissue factor activity into arbitrary tissue factor units (1 μg/ml) suspension of rabbit brain was assigned a value of 1,000 units).
# The mean tissue factor units+standard error was determined from three to four samples. Student's t test for unpair data was used to determine the statistically significant differences. A two-tailed P value of <0.05 was considered significant.
# S. minnesota SmoothLPS (2 μg/ml) was preincubated with equal volume of
# each LPSbinding protein (28HA) at 37° C. for 45 minutes, and the
# mixture was added to the cells and cultured for 16 hours.
# [5] = first experiment, LPS 0.1 μg/ml
# [6] = second experiment, LPS 0.1 μg/ml
molecule,measurement,setting,value
"human RNIP: human RNIP polypeptide comprising amino acids 134 to 170 of SEQ ID NO:2, Merrifield solid phase synthesis (LLGDFFRKSKEKIGKEFKRIVQRIKDFLRNLVPRTES)",anti-coagulant activity,[1],lacks significant anti-coagulant activity
B1,growth inhibition,[2],inhibited the growth
same,growth inhibition,[3],only the rBPI23 inhibited growth
same,"growth inhibitory activity, reduction over control",encapsulated E. coli,about 100 fold
B2,Lethality (%) groups of 10 mice,[4],0%
same,Inhibition (%),human mononuclear cells; [5],30%
same,"Tissue Factor, figure in parentheses (relative to unstimulated = 1.0)","human mononuclear cells; first experiment, LPS 0.1 μg/ml, LPS alone 16.6",9.9
same,Δ Units (%),human mononuclear cells; [5],70%
same,Δ Units,"human mononuclear cells; first experiment, LPS 0.1 μg/ml, LPS alone 17118",12001
same,Tissue Factor,"human mononuclear cells; first experiment, LPS 0.1 μg/ml, LPS alone 18214 ± 4192, RNIP 2 HA units, CAP-18 1 HA unit",13097 ± 1946 Units × 10^3 /3.6 × 10^4 cells
same,Inhibition (%),human mononuclear cells; [6],35%
same,"Tissue Factor, figure in parentheses (relative to unstimulated = 1.0)","human mononuclear cells; second experiment, LPS 0.1 μg/ml, LPS alone 14.7",9.9
same,Δ Units (%),human mononuclear cells; [6],65%
same,Δ Units,"human mononuclear cells; second experiment, LPS 0.1 μg/ml, LPS alone 6726",4366
same,Tissue Factor,"human mononuclear cells; second experiment, LPS 0.1 μg/ml, LPS alone 7218 ± 264, HA units HP-1 4, HP-2 2, RNIP 2, CAP-18 1",4858 ± 1963 Units × 10^3 /3.6 × 10^4 cells
same,"Tissue Factor, figure in parentheses (relative to unstimulated = 1.0)","human mononuclear cells; second experiment, no LPS",1.2
same,Δ Units,"human mononuclear cells; second experiment, no LPS",235
same,Tissue Factor,"human mononuclear cells; second experiment, no LPS, unstimulated 492 ± 75",583 ± 178 Units × 10^3 /3.6 × 10^4 cells
